Measurements taken from PMC8580825, “Scaffolding protein CcmM directs multiprotein phase separation in β-carboxysome biogenesis” (Nature Structural & Molecular Biology, 2021).
One block for each binder: values may come before it.

B3: CcmM full-length protein M58 of Synechococcus elongatus PCC 7942 (natural protein, UniProt Q03513 1-539, looked up)
chain: MPSPTTVPVATAGRLAEPYIDPAAQVHAIASIIGDVRIAAGVRVAAGVSIRADEGAPFQVGKESILQEGAVIHGLEYGRVLGDDQADYSVWIGQRVAITHKALIHGPAYLGDDCFVGFRSTVFNARVGAGSVIMMHALVQDVEIPPGRYVPSGAIITTQQQADRLPEVRPEDREFARHIIGSPPVIVRSTPAATADFHSTPTPSPLRPSSSEATTVSAYNGQGRLSSEVITQVRSLLNQGYRIGTEHADKRRFRTSSWQPCAPIQSTNERQVLSELENCLSEHEGEYVRLLGIDTNTRSRVFEALIQRPDGSVPESLGSQPVAVASGGGRQSSYASVSGNLSAEVVNKVRNLLAQGYRIGTEHADKRRFRTSSWQSCAPIQSSNERQVLAELENCLSEHEGEYVRLLGIDTASRSRVFEALIQDPQGPVGSAKAAAAPVSSATPSSHSYTSNGSSSSDVAGQVRGLLAQGYRISAEVADKRRFQTSSWQSLPALSGQSEATVLPALESILQEHKGKYVRLIGIDPAARRRVAELLIQKP
notes: CcmM (M58, ~58 kDa), Synechococcus elongatus PCC 7942; full-length ccmM gene amplified from genomic DNA; SeCcmM (1-539); Used reduced (M58red, 5 mM DTT) or oxidized (M58ox, 2 mM H2O2; disulfides in SSUL modules); For microscopy labelled at the N terminus with Alexa532 and mixed 1:10 with unlabelled protein; also called SeM58; M58red; source: E. coli BL21 (DE3), purified (Ni-NTA, H6Ub cleaved with …)

What was measured:
[1] = biological target: the molecule itself; assay: turbidity assay; one protein alone (homodemixing: association of trimers into a homocondensate); 50 mM KCl; M58ox 0.5–3.0 μM, M58red 5 and 6 μM; truncations and point mutants oxidized at 3 μM; M58-C4S and CCTRIM35 at 5 μM; 25 °C
[2] = biological target: β-class carbonic anhydrase CcaA of Synechococcus elongatus PCC 7942 (Synechococcus elongatus PCC 7942) (UniProt P27134); assay: SEC-MALS; 2 mg/ml protein; 50 mM Tris-HCl pH 8.0/150 mM KCl or 50 mM Tris-HCl pH 8.0/500 mM KCl/5 mM DTT; 25 °C; oligomeric state in solution
[3] = biological target: B3; assay: turbidity assay; absorbance at 340 nm, 25 °C, 50 mM Tris-HCl pH 8.0, 10 mM Mg(OAc)2; 0.5 μM CcaA or its mutants (0–1.25 μM for the apparent KD) with 0.5 μM M58 or its truncations and mutants, 0.75 μM γCAL198 or 2.25 μM M35; 100 mM KCl (50–400 mM in the salt series); reducing (5 mM DTT) or oxidizing; apparent; a protein alone: association of its oligomers into condensates; settings: both partners purified
[4] = biological target: T1, M58(D172K) (Synechococcus elongatus PCC 7942, UniProt Q03513 1-539, D172K); assay: as above; settings: both partners purified
T1 construct: CcmM (M58), Synechococcus elongatus PCC 7942, point mutant in the γCAL domain (head-to-head salt bridge); also called SeM58-D172K; M58oxD172K; source: E. coli BL21 (DE3), purified as wild-type M58; not shown: His6-ubiquitin, N-terminal, cleaved
T1 sequence (looked up): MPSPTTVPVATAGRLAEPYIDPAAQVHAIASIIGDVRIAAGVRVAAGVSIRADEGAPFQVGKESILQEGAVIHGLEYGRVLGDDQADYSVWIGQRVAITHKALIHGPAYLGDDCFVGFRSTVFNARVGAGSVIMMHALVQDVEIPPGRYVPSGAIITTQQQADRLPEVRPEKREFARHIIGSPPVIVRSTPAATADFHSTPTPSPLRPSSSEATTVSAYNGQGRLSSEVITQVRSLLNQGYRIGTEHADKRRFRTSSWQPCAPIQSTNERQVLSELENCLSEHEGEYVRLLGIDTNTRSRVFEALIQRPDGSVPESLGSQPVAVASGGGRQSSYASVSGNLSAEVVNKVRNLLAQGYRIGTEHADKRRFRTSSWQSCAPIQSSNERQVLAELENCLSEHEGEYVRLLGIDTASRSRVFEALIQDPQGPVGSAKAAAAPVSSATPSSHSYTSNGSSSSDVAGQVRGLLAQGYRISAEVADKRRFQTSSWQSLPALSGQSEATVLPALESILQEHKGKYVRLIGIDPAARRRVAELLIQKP

[5] = biological target: T2, M58(R164D) (Synechococcus elongatus PCC 7942, UniProt Q03513 1-539, R164D); assay: as above; settings: both partners purified
T2 construct: CcmM (M58), Synechococcus elongatus PCC 7942, point mutant in the γCAL domain (head-to-head salt bridge); also called SeM58-R164D; M58oxR164D; source: E. coli BL21 (DE3), purified as wild-type M58; not shown: His6-ubiquitin, N-terminal, cleaved
T2 sequence (looked up): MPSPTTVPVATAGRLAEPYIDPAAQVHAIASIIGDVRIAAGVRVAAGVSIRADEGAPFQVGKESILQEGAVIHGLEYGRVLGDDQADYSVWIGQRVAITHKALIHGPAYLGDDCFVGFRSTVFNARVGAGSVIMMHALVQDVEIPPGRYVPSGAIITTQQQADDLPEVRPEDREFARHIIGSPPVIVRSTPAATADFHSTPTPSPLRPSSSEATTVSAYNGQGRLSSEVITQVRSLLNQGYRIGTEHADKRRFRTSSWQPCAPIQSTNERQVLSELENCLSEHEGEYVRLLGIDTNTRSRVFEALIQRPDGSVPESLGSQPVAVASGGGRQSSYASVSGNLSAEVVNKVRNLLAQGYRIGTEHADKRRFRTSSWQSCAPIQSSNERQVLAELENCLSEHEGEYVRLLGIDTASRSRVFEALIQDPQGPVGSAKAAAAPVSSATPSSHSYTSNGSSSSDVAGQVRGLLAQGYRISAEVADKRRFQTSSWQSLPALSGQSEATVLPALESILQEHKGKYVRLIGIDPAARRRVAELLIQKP

[6] = biological target: CcmM full-length protein M58 of Synechococcus elongatus PCC 7942 (Synechococcus elongatus PCC 7942) (UniProt Q03513); assay: SEC-MALS; 2 mg/ml protein; 50 mM Tris-HCl pH 8.0/150 mM KCl or 50 mM Tris-HCl pH 8.0/500 mM KCl/5 mM DTT; 25 °C; oligomeric state in solution
[7] = biological target: T3, RbcL8 core complex of Rubisco (Synechococcus elongatus PCC 7942); assay: turbidity assay; 0.25 μM RbcL8 with M58red or M58ox at varied concentrations; M35red or M35ox with RbcL8 as controls; 50–200 mM KCl; settings: both partners purified
T3 chain: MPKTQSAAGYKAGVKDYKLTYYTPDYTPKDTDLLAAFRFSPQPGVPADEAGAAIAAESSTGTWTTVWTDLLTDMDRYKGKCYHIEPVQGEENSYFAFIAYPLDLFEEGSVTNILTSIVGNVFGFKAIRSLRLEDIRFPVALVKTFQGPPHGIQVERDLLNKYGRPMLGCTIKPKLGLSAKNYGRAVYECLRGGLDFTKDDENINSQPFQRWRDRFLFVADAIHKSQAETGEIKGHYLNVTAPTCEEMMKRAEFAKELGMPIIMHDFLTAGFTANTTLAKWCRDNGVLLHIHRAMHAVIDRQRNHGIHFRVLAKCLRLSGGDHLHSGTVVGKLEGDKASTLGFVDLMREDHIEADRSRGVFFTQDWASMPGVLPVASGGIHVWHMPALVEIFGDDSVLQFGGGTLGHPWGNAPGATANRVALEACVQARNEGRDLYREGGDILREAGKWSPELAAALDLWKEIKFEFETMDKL

[8] = biological target: B3; assay: turbidity assay; 0.25 μM Rubisco (RbcL8S8) with increasing M58red, M58ox, CCTRIM35red or CCTRIM35ox at 50 mM KCl; or with 0.25 μM M58, 0.25 μM CCTRIM35 or 0.75 μM M35 at 50 and 100 mM KCl; reducing or oxidizing; apparent; settings: both partners purified

B1: γCAL-2S (domain or fragment, Synechococcus elongatus PCC 7942, UniProt Q03513 1-429, looked up)
chain: MPSPTTVPVATAGRLAEPYIDPAAQVHAIASIIGDVRIAAGVRVAAGVSIRADEGAPFQVGKESILQEGAVIHGLEYGRVLGDDQADYSVWIGQRVAITHKALIHGPAYLGDDCFVGFRSTVFNARVGAGSVIMMHALVQDVEIPPGRYVPSGAIITTQQQADRLPEVRPEDREFARHIIGSPPVIVRSTPAATADFHSTPTPSPLRPSSSEATTVSAYNGQGRLSSEVITQVRSLLNQGYRIGTEHADKRRFRTSSWQPCAPIQSTNERQVLSELENCLSEHEGEYVRLLGIDTNTRSRVFEALIQRPDGSVPESLGSQPVAVASGGGRQSSYASVSGNLSAEVVNKVRNLLAQGYRIGTEHADKRRFRTSSWQSCAPIQSSNERQVLAELENCLSEHEGEYVRLLGIDTASRSRVFEALIQDPQGPV
notes: C-terminal truncation of CcmM (M58), Synechococcus elongatus PCC 7942, with the γCAL domain and two SSUL modules, residues 1-429; also called SeγCAL-2S(1–429); γCAL-2Sox; source: E. coli BL21 (DE3), purified as M58; not shown: His6-ubiquitin, N-terminal, cleaved
binding result [1]: binds

stoichiometry N [2]: 4 | Kd [3]: ~200 nM | binding result [4]: binds | binding result [5]: binds
B2: β-class carbonic anhydrase CcaA of Synechococcus elongatus PCC 7942 (enzyme, UniProt P27134 1-272, looked up)
chain: MRKLIEGLRHFRTSYYPSHRDLFEQFAKGQHPRVLFITCSDSRIDPNLITQSGMGELFVIRNAGNLIPPFGAANGGEGASIEYAIAALNIEHVVVCGHSHCGAMKGLLKLNQLQEDMPLVYDWLQHAQATRRLVLDNYSGYETDDLVEILVAENVLTQIENLKTYPIVRSRLFQGKLQIFGWIYEVESGEVLQISRTSSDDTGIDECPVRLPGSQEKAILGRCVVPLTEEVAVAPPEPEPVIAAVAAPPANYSSRGWLAPEQQQRIYRGNAS
notes: CcaA (~30 kDa), Synechococcus elongatus PCC 7942; ccaA gene amplified from genomic DNA; 272 residues (last 17 are 256-272); For microscopy labelled at the N terminus with Alexa405 and mixed 1:10 with unlabelled protein; also called CcaAAF4; source: E. coli BL21 (DE3), purified (Ni-NTA, H6Ub cleaved, SEC); not shown: His6-ubiquitin, N-terminal, cleaved

Binder: B3
stoichiometry N [6]: 3 | fold lower affinity than for the Rubisco holoenzyme [7]: ~4 fold

Kd [8]: ~70 nM
B4: Rubisco holoenzyme (RbcL8S8) of Synechococcus elongatus PCC 7942 (complex)
chain 1: MPKTQSAAGYKAGVKDYKLTYYTPDYTPKDTDLLAAFRFSPQPGVPADEAGAAIAAESSTGTWTTVWTDLLTDMDRYKGKCYHIEPVQGEENSYFAFIAYPLDLFEEGSVTNILTSIVGNVFGFKAIRSLRLEDIRFPVALVKTFQGPPHGIQVERDLLNKYGRPMLGCTIKPKLGLSAKNYGRAVYECLRGGLDFTKDDENINSQPFQRWRDRFLFVADAIHKSQAETGEIKGHYLNVTAPTCEEMMKRAEFAKELGMPIIMHDFLTAGFTANTTLAKWCRDNGVLLHIHRAMHAVIDRQRNHGIHFRVLAKCLRLSGGDHLHSGTVVGKLEGDKASTLGFVDLMREDHIEADRSRGVFFTQDWASMPGVLPVASGGIHVWHMPALVEIFGDDSVLQFGGGTLGHPWGNAPGATANRVALEACVQARNEGRDLYREGGDILREAGKWSPELAAALDLWKEIKFEFETMDKL
chain 2: MSMKTLPKERRFETFSYLPPLSDRQIAAQIEYMIEQGFHPLIEFNEHSNPEEFYWTMWKLPLFDCKSPQQVLDEVRECRSEYGDCYIRVAGFDNIKQCQTVSFIVHRPGRY
